Assay results published in article PMC9352680, “A comprehensive thermodynamic model for RNA binding by the Saccharomyces cerevisiae Pumilio protein PUF4”.
Substitutions are numbered along the chain they refer to. Numbers in names are those of the source.

B1: Ic_S2_P3E.1_K3.1_C3.1_H3.1_A3.1_[T5G]_[A6C]_F3.1_[T7G]_[A8T]_T3.1 (ssRNA)
RNA: UUUGAUUAAUAUGAUAUCGUUCUUUCUUGUAGCGUUUCUUUCUCGAUAUCAUAUUAAUCUUU
B2: Ic_S2_P3E.1_K3.1_C3.1_H3.1_A3.1_[T5G]_[A6C]_F3.1_[A8T]_T3.1 (ssRNA)
RNA: B1 RNA with G34U
B3: Ic_S2_P3E.1_K3.1_C3.1_H3.1_A3.1_[T5G]_[A6C]_F3.1_[A8G]_T3.1 (ssRNA)
RNA: B1 RNA with G34U, U35G
B4: Ic_S2_P3E.1_K3.1_C3.1_H3.1_A3.1_[T5G]_[A6T]_F3.1_[T7C]_[A8T]_T3.1 (ssRNA)
RNA: B1 RNA with C33U, G34C
B5: Ic_S2_P3E.1_K3.1_C3.1_H3.1_A3.1_[T5G]_[A6C]_F3.1_[T7C]_[A8C]_T3.1 (ssRNA)
RNA: B1 RNA with G34C, U35C
B6: Ic_S2_P3E.1_K3.1_C3.1_H3.1_A3.1_[T5G]_[A6T]_F3.1_[T7C]_T3.1 (ssRNA)
RNA: B1 RNA with C33U, G34C, U35A
B7: Ic_S2_P3E.1_K3.1_C3.1_H3.1_A3.1_[T5G]_[A6T]_F3.1_[T7A]_[A8T]_T3.1 (ssRNA)
RNA: B1 RNA with C33U, G34A
B8: Ic_S2_P3E.1_K3.1_C3.1_H3.1_A3.1_[T5G]_[A6T]_F3.1_[A8C]_T3.1 (ssRNA)
RNA: B1 RNA with C33U, G34U, U35C
B9: Ic_S2_P3E.1_K3.1_C3.1_H3.1_A3.1_[T5G]_[A6T]_F3.1_[T7G]_[A8C]_T3.1 (ssRNA)
RNA: B1 RNA with C33U, U35C
B10: Ic_S2_P3E.1_K3.1_C3.1_H3.1_A3.1_[T5G]_[A6T]_F3.1_[T7G]_[A8T]_T3.1 (ssRNA)
RNA: B1 RNA with C33U
B11: Ic_S2_P3E.1_K3.1_C3.1_H3.1_A3.1_[T5G]_[A6T]_F3.1_[T7A]_T3.1 (ssRNA)
RNA: B1 RNA with C33U, G34A, U35A
B12: Ic_S2_P3E.1_K3.1_C3.1_H3.1_A3.1_[T5G]_[A6C]_F3.1_[A8C]_T3.1 (ssRNA)
RNA: B1 RNA with G34U, U35C
B13: Ic_S2_P3E.1_K3.1_C3.1_H3.1_A3.1_[T5G]_[A6T]_F3.1_[T7C]_[A8G]_T3.1 (ssRNA)
RNA: B1 RNA with C33U, G34C, U35G
B14: Ic_S2_P3E.1_K3.1_C3.1_H3.1_A3.1_[T5G]_[A6C]_F3.1_[T7A]_[A8G]_T3.1 (ssRNA)
RNA: B1 RNA with G34A, U35G
B15: Ic_S2_P3E.1_K3.1_C3.1_H3.1_A3.1_[T5G]_[A6C]_F3.1_[T7C]_[A8G]_T3.1 (ssRNA)
RNA: B1 RNA with G34C, U35G
B16: Ic_S2_P3E.1_K3.1_C3.1_H3.1_A3.1_[T5G]_[A6C]_F3.1_[T7A]_T3.1 (ssRNA)
RNA: B1 RNA with G34A, U35A
B17: Ic_S2_P3E.1_K3.1_C3.1_H3.1_A3.1_[T5G]_[A6C]_F3.1_[T7C]_[A8T]_T3.1 (ssRNA)
RNA: B1 RNA with G34C

Each binder was assayed against T1, PUF4 RNA-binding domain (Saccharomyces cerevisiae, UniProt P25339 537-888) (assay: Mg; RNA-MaP; 20 mM Na-HEPES pH 7.4, 30 mM KOAc, 0.75 mM MgCl2, 0.1% Tween-20, 5% glycerol, 0.1 mg/mL BSA, 2 mM DTT; 25 C; 0.0125-409.6 nM protein). Settings: tags: N-His6-TEV cleaved; C-SNAP kept, Cy3B-labelled; label: tethered on chip by stalled RNA polymerase.
T1 sequence: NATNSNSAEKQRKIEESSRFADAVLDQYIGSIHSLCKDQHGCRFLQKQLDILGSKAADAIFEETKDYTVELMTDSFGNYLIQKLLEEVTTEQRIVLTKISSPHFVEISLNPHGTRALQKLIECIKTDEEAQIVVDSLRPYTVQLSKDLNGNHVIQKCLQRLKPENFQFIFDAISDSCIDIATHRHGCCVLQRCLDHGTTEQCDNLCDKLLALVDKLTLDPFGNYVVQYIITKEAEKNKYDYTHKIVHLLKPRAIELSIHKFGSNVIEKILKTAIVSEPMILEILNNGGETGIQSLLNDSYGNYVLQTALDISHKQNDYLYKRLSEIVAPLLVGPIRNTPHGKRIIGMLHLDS

First: UCUCUUUGUACAAUGGUCUCUU (ssRNA) [Ic_S1_P5E.1_K5.1_C5.1_H5.1_A5.1_[T5C]_[T6A]_F5.1_[T9G]_[A10G]_T5.1]
Second: UCUCUUUGUACUCUCUUCUCUU (ssRNA) [Ic_S1_P5E.1_K5.1_C5.1_H5.1_A5.1_[T5C]_[A7C]_F5.1_[T9C]_[A10T]_T5.1]
The Kd of the first is 24-fold lower: 12.5 nM for the first, 295 nM for the second. The first binds more tightly here.

First: UCUCUUUGUAGCCUUUUCUCUU (ssRNA) [Ic_S1_P5E.1_K5.1_C5.1_H5.1_A5.1_[T5G]_[T6C]_[A7C]_F5.1_[A10T]_T5.1]
Second: UCUCUUUGUAACGUCUUCUCUU (ssRNA) [Ic_S1_P5E.1_K5.1_C5.1_H5.1_A5.1_[T5A]_[T6C]_[A7G]_F5.1_[T9C]_[A10T]_T5.1]
The Kd of the first is 4.5-fold lower: 470 nM for the first, 2100 nM for the second. The first binds more tightly here.

First: UCUCUUUGUAACUAUCUCUCUU (ssRNA) [Ic_S1_P5E.1_K5.1_C5.1_H5.1_A5.1_[T5A]_[T6C]_[A7T]_F5.1_[T8A]_[A10C]_T5.1]
Second: UCUCUUUGUAUGUCAUUCUCUU (ssRNA) [Ic_S1_P5E.1_K5.1_C5.1_H5.1_A5.1_[T6G]_[A7T]_F5.1_[T8C]_[T9A]_[A10T]_T5.1]
The Kd of the first is 2.6-fold lower: 113 nM for the first, 297 nM for the second. The first binds more tightly here.

First: UCUCUUUGUACCCCGGUCUCUU (ssRNA) [Ic_S1_P5E.1_K5.1_C5.1_H5.1_A5.1_[T5C]_[T6C]_[A7C]_F5.1_[T8C]_[T9G]_[A10G]_T5.1]
Second: UCUCUUUGUAUGUAAAUCUCUU (ssRNA) [Ic_S1_P5E.1_K5.1_C5.1_H5.1_A5.1_[T6G]_[A7T]_F5.1_[T8A]_[T9A]_T5.1]
The Kd of the first is higher: greater than 2300 nM for the first, 92.9 nM for the second. The second binds more tightly here.

Compared with UCUCUUUGUAGUAAUUUCUCUU (ssRNA) [Ic_S1_P5E.1_K5.1_C5.1_H5.1_A5.1_[T5G]_F5.1_[T8A]_[A10T]_T5.1], UCUCUUUGUAAAUUAAUCUCUU (ssRNA) [Ic_S1_P5E.1_K5.1_C5.1_H5.1_A5.1_[T5A]_[T6A]_[A7T]_F5.1_[T9A]_T5.1] is 810-fold lower in Kd: 1270 nM for the first, 1.57 nM for the second.

Compared with UCUCUUUGUAACGAUGUCUCUU (ssRNA) [Ic_S1_P5E.1_K5.1_C5.1_H5.1_A5.1_[T5A]_[T6C]_[A7G]_F5.1_[T8A]_[A10G]_T5.1], UCUCUUUCUAAAUAUCUCUU (ssRNA) [Ib_S1_P3E.1_K3.1_C3.1_H3.1_[G2C]_A3.1_[T5A]_F3.1_T3.1] is higher in Kd: 1000 nM for the first, greater than 2300 nM for the second.

First: UCUCUUUGUACAUUCGUCUCUU (ssRNA) [Ic_S1_P5E.1_K5.1_C5.1_H5.1_A5.1_[T5C]_[T6A]_[A7T]_F5.1_[T9C]_[A10G]_T5.1]
Second: UCUCUUCGUAUUUAUCUCUU (ssRNA) [Ib_S1_P3E.1_K3.1_C3.1_H3.1_[T1C]_A3.1_[A6T]_F3.1_T3.1]
The Kd of the first is lower: 9.95 nM for the first, greater than 2300 nM for the second.

Going from UCUCUUUGUAUGGCUCUCUCUU (ssRNA) [Ic_S1_P5E.1_K5.1_C5.1_H5.1_A5.1_[T6G]_[A7G]_F5.1_[T8C]_[A10C]_T5.1] to UCUCUUUGUACACACCUCUCUU (ssRNA) [Ic_S1_P5E.1_K5.1_C5.1_H5.1_A5.1_[T5C]_[T6A]_[A7C]_F5.1_[T8A]_[T9C]_[A10C]_T5.1], the Kd falls from greater than 2300 nM to 76.8 nM.

Going from UCUCUUUGUAUAUGAAUCUCUU (ssRNA) [Ic_S1_P5E.1_K5.1_C5.1_H5.1_A5.1_[T6A]_[A7T]_F5.1_[T8G]_[T9A]_T5.1] to UCUCUUUGUAUAUAUUUCUCUU (ssRNA) [Ic_S1_P5E.1_K5.1_C5.1_H5.1_A5.1_[T6A]_[A7T]_F5.1_[T8A]_[A10T]_T5.1], the Kd falls from 19.4 nM to 7.35 nM (2.6-fold).

Going from UCUCUUUGUAUCCAGUUCUCUU (ssRNA) [Ic_S1_P5E.1_K5.1_C5.1_H5.1_A5.1_[T6C]_[A7C]_F5.1_[T8A]_[T9G]_[A10T]_T5.1] to UCUCUUUGUAAUGGUCUCUCUU (ssRNA) [Ic_S1_P5E.1_K5.1_C5.1_H5.1_A5.1_[T5A]_[A7G]_F5.1_[T8G]_[A10C]_T5.1], the Kd rises from 1040 nM to 1800 nM (1.7-fold). The first binds more tightly here.

First: UCUCUUUGUAUCAGCCUCUCUU (ssRNA) [Ic_S1_P5E.1_K5.1_C5.1_H5.1_A5.1_[T6C]_F5.1_[T8G]_[T9C]_[A10C]_T5.1]
Second: UCUCUUUGUACGCCCAUCUCUU (ssRNA) [Ic_S1_P5E.1_K5.1_C5.1_H5.1_A5.1_[T5C]_[T6G]_[A7C]_F5.1_[T8C]_[T9C]_T5.1]
The Kd of the first is 1.6-fold higher: 918 nM for the first, 564 nM for the second.

UCUCUUUGUAUUCCUCUCUCUU (ssRNA) [Ic_S1_P5E.1_K5.1_C5.1_H5.1_A5.1_[A7C]_F5.1_[T8C]_[A10C]_T5.1] and B1 are within 1.5-fold of each other in Kd: 132 nM for the first, 163 nM for the second.

Going from B2 to B3, the Kd rises from 18.6 nM to 156 nM (8.4-fold). The first binds more tightly here.

First: B4
Second: B5
The Kd of the first is 7.5-fold lower: 70.3 nM for the first, 526 nM for the second.

Going from B6 to B7, the Kd falls from 751 nM to 27.7 nM (27-fold).

Compared with B8, B9 is 2-fold higher in Kd: 191 nM for the first, 390 nM for the second.

Compared with B10, B11 is 6.2-fold higher in Kd: 105 nM for the first, 650 nM for the second.

Going from B12 to B13, the Kd rises from 181 nM to 436 nM (2.4-fold).

B14 and B15 are within 1.5-fold of each other in Kd: 754 nM for the first, 996 nM for the second.

Going from B16 to B17, the Kd falls from 506 nM to 63.9 nM (7.9-fold). The second binds more tightly here.

Going from UCUCUUUGUAUAUCCUUCUCUU (ssRNA) [Ic_S1_P5E.1_K5.1_C5.1_H5.1_A5.1_[T6A]_[A7T]_F5.1_[T8C]_[T9C]_[A10T]_T5.1] to UCUCUUUGUACUGCAUUCUCUU (ssRNA) [Ic_S1_P5E.1_K5.1_C5.1_H5.1_A5.1_[T5C]_[A7G]_F5.1_[T8C]_[T9A]_[A10T]_T5.1], the Kd rises from 24 nM to 534 nM (22-fold).

First: UCUCUUUGUAACUCAGUCUCUU (ssRNA) [Ic_S1_P5E.1_K5.1_C5.1_H5.1_A5.1_[T5A]_[T6C]_[A7T]_F5.1_[T8C]_[T9A]_[A10G]_T5.1]
Second: UCUCUUAGUAUGUAUCUCUU (ssRNA) [Ib_S1_P3E.1_K3.1_C3.1_H3.1_[T1A]_A3.1_[A6G]_F3.1_T3.1]
The Kd of the first is 2.2-fold lower: 175 nM for the first, 381 nM for the second. The first binds more tightly here.

Compared with UCUCUUUGUAACCUUUUCUCUU (ssRNA) [Ic_S1_P5E.1_K5.1_C5.1_H5.1_A5.1_[T5A]_[T6C]_[A7C]_F5.1_[A10T]_T5.1], UCUCUUAGUAUCUAUCUCUU (ssRNA) [Ib_S1_P3E.1_K3.1_C3.1_H3.1_[T1A]_A3.1_[A6C]_F3.1_T3.1] is higher in Kd: 49.8 nM for the first, greater than 2300 nM for the second.

Going from UCUCUUUGUACUCUAUUCUCUU (ssRNA) [Ic_S1_P5E.1_K5.1_C5.1_H5.1_A5.1_[T5C]_[A7C]_F5.1_[T9A]_[A10T]_T5.1] to UCUCUUUGUAGCCCAUUCUCUU (ssRNA) [Ic_S1_P5E.1_K5.1_C5.1_H5.1_A5.1_[T5G]_[T6C]_[A7C]_F5.1_[T8C]_[T9A]_[A10T]_T5.1], the Kd rises from 3.85 nM to 1530 nM (400-fold). The first binds more tightly here.
